Target: the molecule itself
Test: SEC

B1: Zymomonas mobilis pyruvate kinase (enzyme, UniProt O86020 1-475, looked up)
chain: MTEGLFPRGRKVRVVSTLGPASSTAEQIRDRFLAGADVFRINMSHGTHDEKKVIVDNIRALEKEFNRPTTILFDLQGPKLRVGDFKEGKVQLKEGQTFTFDQDPTLGDETRVNLPHPEIFKALDKGHRLLLDDGKIVVRCVESSPTKIVTRVEVPGPLSDHKGFNVPDVVIPLAALTPKDRKDLDFALKEKADWVALSFVQRVEDVIEAKELIKGRAPLLVKLEKPAAIENLESILAATDAVMVARGDLGVECLPESVPPTQKRIVERSRQLGKPVVVATAMLESMIKAPAPTRAEVSDVANAIYEGADGIMLSAESAAGDWPHEAVNMMHRIASYVENAPGYIERVRFTPTPAEPTTVDALAENASKTAETVGAKAIIVFTETGKTAQRVSRARPVAPILSLTPDAEVARRLGLVWGAQPVQVSTVKTLDEAKKLAAETAKKYGFAKAGDKLVVVAGEPFGKAGTTNIVDVIEA
stoichiometry N: 2
